Measurements reported in article PMC7660097.

Experiments:
[1] = molecular target: C. albicans cell surface-exposed enolase (C. albicans) (UniProt P30575); experiment: SPR; BIACORE 3000; enolase amine-coupled to a CM5 chip (about 300 RU); human protein as analyte (40-750 nM or 75-750 nM), 30 µL/min, 25 °C, 10 mM HEPES, 150 mM NaCl, 0.005% P20, pH 7.4; 1:1 Langmuir global fit with baseline drift and local Rmax; regeneration 1 M NaCl
[2] = molecular target: C. albicans cytosolic enolase (C. albicans) (UniProt P30575); experiment: as above
[3] = molecular target: C. tropicalis cytosolic enolase (C. tropicalis) (UniProt C5MD83); experiment: as above
[4] = molecular target: C. albicans cytosolic enolase (C. albicans) (UniProt P30575); experiment: ELISA; competition in a microplate: VTR immobilised (3 pmol per well); 40 nM biotinylated C. albicans enolase and 400 nM unlabeled HPG added together in PBS, 1.5 h, 37 °C; SA-HRP/TMB; also with 5 mM Mg2+ (no effect)
[5] = molecular target: human fibronectin (human); experiment: ELISA; microplate ligand-binding assay, semi-quantitative: 3 pmol human protein immobilised per MaxiSorp well, blocked with 3% BSA; biotin-labeled enolase 10-500 nM in PBS, 1.5 h, 37 °C; detection with SA-HRP/TMB; BSA-only wells subtracted
[6] = molecular target: human plasminogen (human); experiment: as above
[7] = molecular target: human vitronectin (human) (UniProt P04004); experiment: as above
Chain of human vitronectin (human) (P04004 20-478): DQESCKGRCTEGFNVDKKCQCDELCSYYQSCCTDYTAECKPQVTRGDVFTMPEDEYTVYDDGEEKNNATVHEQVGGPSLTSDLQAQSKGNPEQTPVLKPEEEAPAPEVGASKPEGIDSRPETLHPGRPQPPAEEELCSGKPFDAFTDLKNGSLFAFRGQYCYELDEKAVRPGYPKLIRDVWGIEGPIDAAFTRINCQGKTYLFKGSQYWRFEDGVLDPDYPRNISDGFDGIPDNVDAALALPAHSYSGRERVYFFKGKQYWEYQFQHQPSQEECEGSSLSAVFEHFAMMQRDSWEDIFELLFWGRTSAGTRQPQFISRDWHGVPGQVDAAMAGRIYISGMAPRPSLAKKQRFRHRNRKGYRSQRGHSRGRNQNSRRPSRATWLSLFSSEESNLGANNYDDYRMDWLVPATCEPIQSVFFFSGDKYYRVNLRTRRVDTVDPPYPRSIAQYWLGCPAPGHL

| Substance | Kd [1] | koff [1] | kon [1] | Kd [2] | koff [2] | kon [2] | Kd [3] | koff [3] | kon [3] | reduction of the binding of biotinylated enolase to immobilized VTR [4] | reduction in binding compared to R-Eno [5] | reduction in binding compared to R-Eno [6] | reduction in binding compared to R-Eno [7] |
| --- | --- | --- | --- | --- | --- | --- | --- | --- | --- | --- | --- | --- | --- |
| human fibronectin (natural protein) | 36.8 nM | 0.00222 s⁻¹ | 60300 M⁻¹ s⁻¹ | 42.8 nM | 0.0277 s⁻¹ | 647000 M⁻¹ s⁻¹ | 51.8 nM | 0.00284 s⁻¹ | 54800 M⁻¹ s⁻¹ |  |  |  |  |
| human plasminogen (natural protein) | 120 nM | 0.0626 s⁻¹ | 522000 M⁻¹ s⁻¹ | 257 nM | 0.0693 s⁻¹ | 270000 M⁻¹ s⁻¹ | 253 nM | 0.0146 s⁻¹ | 57700 M⁻¹ s⁻¹ | 50% |  |  |  |
| recombinant C. albicans enolase with the 235-255 sequence of S. cerevisiae enolase (R-Enosc) (from UniProt P30575 1-440) (enzyme) |  |  |  |  |  |  |  |  |  |  | > 50% | > 50% | > 50% |
